Results published in paper PMC12175907 (Science Advances, 2025).

What was measured:
shrews [1] = test: emesis, semaglutide dose-response, shrews; assay type: in vivo, Suncus murinus; conditions: for animals exhibiting emesis / emesis, dose dependence: 120 min; for animals exhibiting emesis: n = 9; for latency to first emetic episode: average of shrews that exhibited emesis, ± SEM; for emesis, dose dependence: 10, 50, 100 and 500 nmol/kg ip
Excerpt: (§1) Adult male shrews (S. murinus) weighing ~50 to 80 g (n = 84 total) were bred and maintained in the De Jonghe Lab (University of Pennsylvania). These animals were offspring from a colony previously maintained at the University of Pittsburgh Cancer Institute (C. Horn); a Taiwanese strain was derived from stock originally supplied by the Chinese University of Hong Kong. Shrews were singly housed in plastic cages (37.3 cm by 23.4 cm by 14 cm, Innovive) under a 12-hour/12-hour light/dark cycle in a temperature-controlled and humidity-controlled environment. Animal were fed ad libitum with a mixture of feline (75%, Laboratory Feline Diet 5003, Lab Diet) and mink food (25%, High Density Ferret Diet 5LI4, Lab Diet) and had ad libitum access to tap water except where noted.
To assess the emetogenic effects of semaglutide treatment, shrews (n = 9) were habituated to intraperitoneal injections and to clear plastic observation chambers (23.5 cm by 15.25 cm by 17.8 cm) for two consecutive days prior to experimentation. The animals were injected intraperitoneally with semaglutide (10, 50, 100, and 500 nmol/kg) or vehicle and then video recorded (Vixia HF-R62, Canon) for 120 min. After 120 min, the animals were returned to their cages. Treatment rounds were conducted within-subject and separated by 7 days. Analysis of emetic episodes was measured by a trained observer blinded to treatment groups. Emetic episodes were characterized by strong rhythmic abdominal contractions associated with either oral expulsion from the GI tract (i.e., vomiting) or without the passage of materials (i.e., retching). Latency to the first emetic episode, the total number of emetic episodes, and the number of emetic episodes per minute were quantified.

DIO GIPR KO mice = test: body composition (ECHO MRI), DIO GIPR KO mice; assay type: in vivo, mouse; conditions: 16 days daily sc, GIP-085 300 nmol/kg, semaglutide 3 nmol/kg, mean ± SEM, n=6 per group
Method: C57BL/6 wild-type (n = 23), GLP-1R KO (n = 24), and GIPR KO mice (n = 24) received daily subcutaneous administration of GIP-085 (300 nmol/kg), semaglutide (3 nmol/kg), GIP-085/semaglutide combo, or vehicle for 16 days. Food intake and body weight were manually measured daily. The average body weight at the start of the experiment was 43.7 ± 0.4 g for the wild-type group, 39.0 ± 0.6 g for the GLP-1R KO group, and 36.5 ± 0.4 g for the GIPR KO group. Body composition of mice was determined using quantitative nuclear magnetic resonance analysis (ECHO MRI, 3-1 Composition Analyzer; Echo Medical Systems). At the end of the experiment, the animals were euthanized by CO2.

DIO GLP-1R KO mice = test: chronic treatment, food intake and body weight, DIO GLP-1R KO mice; assay type: in vivo, mouse; conditions: GIP-085 300 nmol/kg, semaglutide 3 nmol/kg or combo, sc daily, 16 days; n = 6 per group
Excerpt: DIO adult male C57BL/6 mice (Taconic) C57BL/6 (n = 23, weighing ~43 g at arrival), GLP-1R KO (germline knockout line: 11549, n = 24, weighing ~38 g at arrival), and GIPR KO mice (germline knockout line: 2886, n = 24, weighing ~35 g at arrival) were used. Upon arrival, mice were individually housed and continued to be fed ad libitum on high-fat/high-sugar diet (60% fat diet, 12492, Research Diets).
GIPFA-085 (GIP-085), tirzepatide, and GLP-140 were designed and produced by Eli Lilly and Company. GIP-085, GLP-140, and semaglutide (Cayman Chemical) were dissolved in 40 mM tris-HCl buffer (pH 8) and 0.02% Tween 80. For the study in mice, all drugs were injected subcutaneously at a volume of 5 ml/kg of body weight. In rats, all drugs were injected intraperitoneally, at a volume of 1 ml/kg of body weight, except when noted. In shrews, all drugs were injected intraperitoneally at a volume of 10 ml/kg of body weight.
C57BL/6 wild-type (n = 23), GLP-1R KO (n = 24), and GIPR KO mice (n = 24) received daily subcutaneous administration of GIP-085 (300 nmol/kg), semaglutide (3 nmol/kg), GIP-085/semaglutide combo, or vehicle for 16 days. Food intake and body weight were manually measured daily. […] Body composition of mice was determined using quantitative nuclear magnetic resonance analysis (ECHO MRI, 3-1 Composition Analyzer; Echo Medical Systems). […]

shrews [2] = test: food intake and body weight, semaglutide dose-response, shrews; assay type: in vivo, Suncus murinus; conditions: 10, 50, 100 and 500 nmol/kg ip, n = 8 per group (legend)
Excerpt: as §1
We evaluated the effects on food intake and body weight of different doses of semaglutide. Food was removed 2 hours prior to dark onset. Shortly before dark onset, shrews (n = 9, ~59 ± 2 g) received intraperitoneal injection of semaglutide (10, 50, 100, and 500 nmol/kg) or vehicle. Shrews had ad libitum access to powdered food through a circular (3 cm in diameter) hole in the cage. Food intake was evaluated using our custom-made “feedometers,” consisting of a standard plexiglass rodent housing cage (29 cm by 19 cm by 12.7 cm) with mounted food hoppers resting on a plexiglass cup (to account for spillage). Food intake was manually measured at 6, 24, 48, and 72 hours postinjection. Body weight was taken at 0, 24, 48, and 72 hours. Treatments occurred in a within-subject, counterbalanced design and were 7 days apart.

[3] = test system: adults with overweight or obesity; set-up: method as in 2 sources, ref 4 = [4]; PMID 33567185; doi:10.1056/NEJMoa2032183; 4 J. P. H. Wilding , R. L. Batterham , S. Calanna , M. Davies , L. F. Van Gaal , I. Lingvay , B. M. McGowan , J. Rosenstock , M. T. D. Tran , T. A. Wadden , S. Wharton , K. Yokote , N. Zeuthen , R. F. ||| ref 6 = [6]; PMID 34514682; doi:10.1111/dom.14551; 6 S. Wharton , S. Calanna , M. Davies , D. Dicker , B. Goldman , I. Lingvay , O. Mosenzon , D. M. Rubino , M. Thomsen , T. A. Wadden , S. D. Pedersen , Gastrointestinal tolerability of once-weekly sem; conditions: cited from earlier work

## semaglutide
Shrews [1]; 100 nmol/kg ip
  animals exhibiting emesis: Twenty-two
  latency to first emetic episode: 63 ± 14 min
Shrews [1]; 500 nmol/kg ip
  animals exhibiting emesis: 67%
  latency to first emetic episode: 58 ± 6 min
Shrews [1]
  emesis, dose dependence: dose-dependently induced emesis
Shrews [1]; listed as Semaglutide
  emesis, dose dependence: causes emesis in a dose-related manner
DIO GIPR KO mice; Veh: 14.2±0.6g
  total fat mass at the end of the experiment: 8.1 ± 0.6 g
DIO GIPR KO mice; Veh: 22.3±0.5g
  total lean mass at the end of the experiment: 20.9 ± 0.3 g
DIO GLP-1R KO mice
  anorectic effects / food intake: absent
  body weight: absent
Shrews [2]
  body weight loss: significant body weight loss up to 72 hours after the highest dose tested
  food intake (anorexia): causes anorexia in a dose-dependent manner
Shrews [2]; listed as Semaglutide
  body weight loss: dose-dependently induces body weight loss
[3]; STEP 1
  patients reporting nausea: 44.2%
  patients reporting vomiting: 24.8%
[3]; people with overweight/obesity without type 2 diabetes
  weight loss: double-digit weight loss
[3]; pooled STEP 1-3 trials
  participants with dose reduction or temporary treatment interruption (GI side effects): ~ 12.5%
  permanent treatment discontinuation (GI side effects): ~ 4.3%
